In ChEMBL document CHEMBL1133169, “A light-inactivated antibiotic” (2000):

Substrate: CC(=O)OCC1=C(C(=O)O)N2C(=O)[C@@H](NC(=O)[C@@H](Cc3ccccc3)NNC(=O)OCc3ccccc3[N+](=O)[O-])C2SC1
Test: The turnover kinetic parameter (Km) evaluated for Class A TEM-1 beta-lactamase

B1: Beta-lactamase TEM (Escherichia coli), P62593 (protein)
chain: MSIQHFRVALIPFFAAFCLPVFAHPETLVKVKDAEDQLGARVGYIELDLNSGKILESFRPEERFPMMSTFKVLLCGAVLSRVDAGQEQLGRRIHYSQNDLVEYSPVTEKHLTDGMTVRELCSAAITMSDNTAANLLLTTIGGPKELTAFLHNMGDHVTRLDRWEPELNEAIPNDERDTTMPAAMATTLRKLLTGELLTLASRQQLIDWMEADKVAGPLLRSALPAGWFIADKSGAGERGSRGIIAALGPDGKPSRIVVIYTTGSQATMDERNRQIAEIGASLIKHW
**Q.** Which Km does the source give for B1 here?
**A.** Its Km is 80 µM.
